Earlier results on one substance are cited in PMC6104694.

The Kd is a measure of binding affinity in units of concentration.

Data set [1] deals with presenilin-1 C-terminal fragment 23 amino acid CTF (Homo sapiens) (UniProt P49768).
Data set [2] shares this target. The source holds these as a separate data set.

Read-outs that look alike come from different tables or passages of the source.

KChIP3 (calsenilin), sequence (Q9Y2W7 whole entry): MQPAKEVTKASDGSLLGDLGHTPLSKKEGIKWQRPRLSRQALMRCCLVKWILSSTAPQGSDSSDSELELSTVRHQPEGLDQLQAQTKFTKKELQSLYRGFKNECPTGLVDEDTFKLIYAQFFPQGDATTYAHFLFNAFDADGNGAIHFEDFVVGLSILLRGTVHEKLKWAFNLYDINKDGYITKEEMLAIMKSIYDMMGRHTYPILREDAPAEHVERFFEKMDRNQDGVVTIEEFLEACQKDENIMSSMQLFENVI

As for “KChIP3 (calsenilin) (from UniProt Q9Y2W7)”, the dissociation constant (Kd) in data set [1] was 183 µM; in data set [2], 600 nM.
